From the DeepSol protein solubility set

Assay: soluble on expression in E. coli; label from the status in PepcDB or PDB records

Row | Sequence | soluble on expression in E. coli
1 | MRDEKRKAIPAIGFYPQEEISTGTTLIAMEYNGGVVVGTDSRTSAGSFITSRATNKITPITDNMVVCRSGSAADTQAIADIAKYHIDVYTMTENKPVTIYRSSQIFRQFLYNYREQLSASVLVAGWDEELGGQVYAIPIGGFVSRQRSTASGSGSTFVQGFLDSQWRPNLTLEECKAIVKQAVGLATFRDGSSGGVVRLAVINKAGSQFELFRPDKPGFPFVQTPTPHLSFPPHIEQVL | not soluble
2 | MRDIMSSPPITTLPMTSVKEAAKIMLENRVGSLIVVNERNTLLGILTKTDIIREVVAKGLDPESVRVGDIMTRNPYYVYTDDSVERAASLMGEHNIGHLPVLDPETEKPVGIVTKTDIVKLAPNYINVIYSLKQEIDRRERLKRIRK | soluble
3 | MREDHSPRRNNTIENTLTELLPNRLYFGCFPNPDAIDKSDKSVKKTCFININNKFHYEPFYEDFGPWNLSVLYRLCVQVGKLLEVEEKRSRRVVLFCQDDGTGQYDKIRVNTAYVLGAYLIIYQGFSADDAYLKVSSGETVKFVGFRDASMGSPQYLLHLHDVLRGIEKALKFGWLDFSDFDYEEYEFYERVENGDFNWIIPGKILSFCGPHNESREENGYPYHAPDVYFDYFRENKVSTIVRLNAKNYDASKFTKAGFDHVDLFFIDGSTPSDEIMLKFIKVVDNTKGGVAVHCKAGLGRTGTLIACWMMKEYGLTAGECMGWLRVCRPGSVIGPQQPYLIEKQKFCWSLSQSNGVHLTQNKEEKRNVRRLVNQVDDINLGEERISPKSRENTRPNILRRRVQVQNGRSTAPVTIAPAGTSESRRSTKPSRVVDETALDDQGRSQGDRLLQLKAKHQHESETTSPNSSSSRRFVKSSTPQMTVPSQAYLNRNREPIIVTPSKNGTSSGTSSRQLKTTPNGNVAYRTRNSSGNTTSTLTRTPASAVFPSMASRRSETTRYLSPTTPIKPMSPSYTDGTSPRYKARLRSENPIGSTTSTPFSLQPQFGLVRVPPDSPHSIMAHRPPPTTSSRAPLSPHNYSTTQGYSTSSRGLYGDKKPLARGSVSTSTLPSMYMTRKMSENGAVEVEITTSYVEDRKAAEQIDPSSTPPEPKRRFVLVSRKIVSKEVPSAGPTCSNDPRLNYASTRKLPIKISHRLCQICRTIKPIADISMMTDENEKLFILLAAIFQRKLFVEECTRIYKQPAVYTCSSHYSEASTAILNMFGVGGALRIFRARPRKVSQVEKFASHLMGKQFEEDKLIHSAYMFVLNHPEAGAVTGPIIKEEDIPFEETVECSSTTAVNGILPKCFRQPRKQKLEEDSCSSSILRIIKKTTPSLPNRSYTMINQNMEHPLQCCYCLEVYEKRYMTQVPKTEQRIARWVAILGEQFRIRLRMKPANYMCRKHFPQADFSSRGRLLKTAVPNVVSQEKVLAFKLEGNTFVEVKEDNTNIKMEKGTDSEIDIEN | not soluble
4 | MREKFYEKYYYAKSDIEGQDGGVVTAFLKYLLENGKIDGAIVVGDECWKPVSLVVQNAEDLLKTAKSKYAISTLDALRKAGEMGLEKVALEHHHHHH | not soluble
5 | MRELKVVGLDADGKNIICQGAIPSEQFKLPVDDRLRAALRDDSVQPEQAQLDIEVTNVLSPKEIQARIRAGASVEQVAAASGSDIARIRRFAHPVLLERSRAAELATAAHPVLADGPAVLTMQETVAAALVARGLNPDSLTWDAWRNEDSRWTVQLAWKAGRSDNLAHFRFTPGAHGGTATAIDDTAHELINPTFNRPLRPLAPVAHLDFDEPEPAQPTLTVPSAQPVSNRRGKPAIPAWEDVLLGVRSGGRR | soluble
6 | MRERLKGVIKKGVKVFFTDESGIHHDPSKVRRLGLYNVPVDYPSRKLNVLASIPLFDGVPCFMSTYSNVNFKIFAEFLRLFRNSGPIVLILDSAKFHKNAYVFSVASQLGITLLFLPPYSPDLNPIEFGGTWFVG | soluble
7 | MREWINQSKIDLLAKEIGEENVPILVNIFLGELNDYQSKLVSDTVADKLGYLKEISHALKSSAASFGADRLCAKAVELDSRAKSGEMMDISLEVEHMLELLKQTHQCYSDLVH | not soluble
8 | MRFFLSPPHMGGNELKYIEEVFKSNYIAPLGEFVNRFEQSVKDYSKSENALALNSATAALHLALRVAGVKQDDIVLASSFTFIASVAPICYLKAKPVFIDCDETYNIDVDLLKLAIKECEKKPKALILTHLYGNAAKMDEIVEICKENDIVLIEDAAEALGSFYKNKALGTFGEFGVYSYNGNKIITTSGGGMLIGKNKEKIEKARFYSTQARENCLHYEHLDYGYNYRLSNVLGAIGVAQMEVLEQRVLKKREIYEWYKEFLGEYFSFLDELENSRSNRWLSTALINFDKNELNACQKDINISQKNITLHPKISKLIEDLKNKQIETRPLWKAMHTQEVFKGAKAYLNGNSELFFQKGICLPSGTAMSKDDVYEISKLILKSIKAGSHHHHHH | soluble
9 | MRFKVGIEFDESLELPFNYNKILQGFIYRNIMDKDLARFIHDRGFSYEKRKYKMFTFSRLQGKFSIDSKKKKIIYQSPVELVVSSCYEDFFIDLSLSLLRRDVEIAGHKAYVSKMDIIMEEPKSIQKIRMLSPVTAYSTLDDKRTVYFSPYNHDFKRIIKENLIKKYKAFYKDDSKDNVDFDIELVSDKYAKVISSYDGFIIEGWMGDFVLKGDQEVIKLAYDAGIGGKNSQGFGCFKLI | soluble
10 | MRGLDYRWIEALDSVVSKGSFERAAEQLFISQSAVSQRIKQLEKYLAQPVLIREQPPRPTLVGKKLLGLYRRVCLIEQELVPELTNQEHVRPVSMSIATNADSLATWLLPALDKVMKSRQVELNLVIYGESRTLDKLKNGEVVGAISLEPQPITGCSAEYLGQMEYLCVASPEFYQKYFAKGVTPRSLIKAPAVSYDQYDELHNKFLWDYFAVPRDKVINHTVGSSEAFVRLALSGAAYCLIPRLQIISELESGALINMTPDFMLSYPIFWHHWQLETGVLLEISEAITAYAKSVLPQ | not soluble
11 | MRGSHHHHHHGRSLNPLSTPQFDSTDETPASYNLAVRRAAPAVVNVYNRGLNTNSHNQLEIRTLGSGVIMDQRGYIITNKHVINDADQIIVALQDGRVFEALLVGSDSLTDLAVLKINATGGLPTIPINARRVPHIGDVVLAIGNPYNLGQTITQGIISATGRIGLNPTGRQNFLQTDASINPGNSGGALVNSLGELMGINTLSFDKSNDGETPEGIGFAIPFQLATKIMDKLIRDGRVIRGYIGIGGREIAPLHAQGGGIDQLQGIVVNEVSPDGPAANAGIQVNDLIISVDNKPAISALETMAQVAEIRPGSVIPVVVMRDDKQLTLQVTIQEYPATN | soluble
12 | MRGSHHHHHHGSDLGKKLLEAARAGQDDEVRILMANGADVNANDWFGITPLHLVVNNGHLEIIEVLLKYAADVNASDKSGWTPLHLAAYRGHLEIVEVLLKYGADVNAMDYQGYTPLHLAAEDGHLEIVEVLLKYGADVNAQDKFGKTAFDISIDNGNEDLAEILQKLN | soluble
13 | MRGSHHHHHHGSIEGRSAVTCDDYYYGFGCNKFCRPRDDFFGHYACDQNGNKTCMEGWMGPECNRAICRQGCSPKHGSCKLPGDCRCQYGWQGLYCDKCIPHPGCVHGICNEPWQCLCETNWGGQLCDKDLNYCGTHQPCLNGGTCSNTGPDKYQCSCPEGYSGPNCEI | soluble
14 | MRGSHHHHHHGSMQILLANPRGFCAGVDRAISIVENALAIYGAPIYVRHEVVHNRYVVDSLRERGAIFIEQISEVPDGAILIFSAHGVSQAVRNEAKSRDLTVFDATCPLVTKVHMEVARASRRGEESILIGHAGHPEVEGTMGQYSNPEGGMYLVESPDDVWKLTVKNEEKLSFMTQTTLSVDDTSDVIDALRKRFPKIVGPRKDDICYATTNRQEAVRALAEQAEVVLVVGSKNSSNSNRLAELAQRMGKRAFLIDDAKDIQEEWVKEVKCVGVTAGASAPDILVQNVVARLQQLGGGEAIPLEGREENIVFEVPKELRVDIREVD | soluble
15 | MRGSHHHHHHTDPALRASIKNLPADYLLAAQQGDIDKVKTCLALGVDINTCDRQGKTAITLASLYQQYACVQALIDAGADINKQDHTCLNPFLISCLNDDLTLLRIILPAKPDLNCVTRFGGVGLTPACEKGHLSIVKELLAHTEINVNQTNHVGWTPLLEAIVLNDGGIKQQAIVQLLLEHGASPHLTDKYGKTPLELARERGFEEIAQLLIAAGAGLCGR | soluble
16 | MRGSHHHHHHTDPHASSVPLEWPLSSQSGSYELRIEVQPKPHHRAHYETEGSRGAVKAPTGGHPVVQLHGYMENKPLGLQIFIGTADERILKPHAFYQVHRITGKTVTTTSYEKIVGNTKVLEIPLEPKNNMRATIDCAGILKLRNADIELRKGETDIGRKNTRVRLVFRVHIPESSGRIVSLQTASNPIECSQRSAHELPMVERQDTDSCLVYGGQQMILTGQNFTSESKVVFTEKTTDGQQIWEMEATVDKDKSQPNMLFVEIPEYRNKHIRTPVKVNFYVINGKRKRSQPQHFTYHPV | soluble
17 | MRHFDIAITGAGLAGQIAAIALARAGRHVALIAPSSEKKDQRTTALMDQSIRFMDRLGLWSRIAPSAARLSTMQIIDGTDRLLRAPTVQFRSSEIGLDAFGWNIPNEALLGVLSEAVEQEHNITRLDTTAETIDIGNDRISVTIADGEVLSADFLIGADGRKSMVREAAGIGVKSWSYPQTAVVLNFSHSRPHGNVSTEFHTPTGPFTQVPLPDDRSSLVWVVTPQQAEELTALPLETLSLKVEERMQSMLGAVTVENSVQAWPLSSMTAHRFGKGRVALIGEAAHGFPPIGAQGLNLSLRDIIALTELLGAVSDRPIAADAGSSFDRKRRADVYSRTLSVDLLNRSLLSDFLPVQMARAAGLHVLSGIGTLRSMVMREGIEPGRGLKALPSLLFGSFKKAGLEHHHHHH | soluble
18 | MRIEQELKLGFKDVLFRPKRSTLKSRSQVNLTREFTFKHSGRQWSGVPVIAANMDSVGSFAMAKALAEHGVMTAVHKHYTVADWAEFVKSADKATLNNVMVSTGTSEADFQKTKDVMALSDELIFICIDIANGYSEHLVEYVQRVRAAFPDKVISAGNVVTGDMVEELILAGADIVKVGIGPGSVCTTRVKTGVGYPQLSAIIECADAAHGLGGRIIGDGGCTCPGDVAKAFGGGADFVMLGGMLAGHEEAGGELIVKDGETFMKFYGMSSKSAMDKHSGGVAGYRAAEGKTVLLPYRGSVHGTIQDILGGVRSTCTYVGAAELRELTKRTTFIRVQEQENNVYGRE | soluble
19 | MRIGHGFDVHKFGENGSGPLIIGGVRIPYEKGLLAHSDGDVALHAATDALLGAAALGDIGKLFPDTDPAFKGADSRGLLREAYRRILAKGYKLGNLDITIIAQAPKMAPHIPQMRVNLAEDLQCHMDDINVKATTTEQLGFTGRGEGIACEAVVLLVNVEQG | not soluble
